Drawing on the supplement of paper PMC10126150, this text covers switch fluorescence ratio for 120 sequences.

± gives the standard deviation of the averaged measurements.

The series relates to ATP. Kind of series: switch fluorescence ratio, 500 uM ATP over buffer (Cy3 cluster intensity, sum of 5 cycles each) (fold (ratio)); higher = stronger signal-on switching upon ATP binding; sequences stand for … in TCGTCGGCAGCGTCAGATGTGTATAAGAGACAGTTTTTTTTTTTTTTTTTTTTTTTTT…TC. Particulars: aptamer strand: ATP DNA aptamer (quencher-CACCTGGGGGAGTATTGCGGAGGAAGG + anchor), 100 nM annealed; ATP concentration: 500 uM. The method in brief: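 Per cluster, summed Cy3 intensity from the target cycles was divided by that from the buffer cycles to give the fluorescence ratio, then averaged per switch-domain sequence. Clusters outside 100-1000 RFU were excluded. The Cy3-labelled switching-strand clusters, on a modified Illumina MiSeq flow-cell, were annealed to 100 nM quencher-labelled ATP aptamer and imaged in selection buffer, then after 15 min with 500 uM ATP at 22 °C, for five cycles with NaOH stripping and re-annealing between them.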
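Also: ATP exposure 15 min at 22 °C before imaging.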

Turning to TTGAGAGCAG, the switch fluorescence ratio is 1.24 ± 0.11.
In the case of TTGATGTCAA it was 0.999 ± 0.056; in that of TTCTAGTCGT, 0.971 ± 0.019.
As for CTTTTTTAGA, the switch fluorescence ratio stood at 0.9746 ± 0.0097.
Regarding ATCCGTGAGA, the switch fluorescence ratio turned out to be 1.05 ± 0.02.
Next, AAGCGGGGGG: 1.03 ± 0.015.
As for AAAATATTTA, the switch fluorescence ratio was 1.02 ± 0.012.
In the case of CAATAAATAT, the switch fluorescence ratio is 0.97 ± 0.032.
Next, TGGCCTAGTG: 1.002 ± 0.0071; TTACGGGGAC: 1.08 ± 0.089; GAAATGGCAA: 1.03 ± 0.051.
In the case of TTAATTATGG it was 1 ± 0.034.
Next, ACCTGCATGG: 1.05 ± 0.11; CCGCTACTGT: 2.69 ± 0.39; GGGTCTAATT: 0.9917 ± 0.0014.
For CATTTTATAA, the switch fluorescence ratio turned out to be 0.999 ± 0.014.
In the case of ACCTTGGTGT it was 1.01 ± 0.053; in that of CGGAGCCAGG, 1.43 ± 0.02.
Next, TTAAGAGTTA: 1.006 ± 0.01; CCATGGCGGG: 0.97 ± 0.028.
In the case of GGGGGAATTT it was 0.993 ± 0.028.
Regarding TTTTTGAAAC, the switch fluorescence ratio amounted to 1.01 ± 0.027.
In the case of CGTTCCGGTC it was 1.06 ± 0.054; in that of CGCGGTAGTC, 1.1 ± 0.046; in that of CTAATGTGTC, 1.02 ± 0.088.
In the case of AGGCGCAAGC it was 1.07 ± 0.048; in that of TTGTTACTGG, 1.01 ± 0.03.
In the case of TATCGGCGTG it was 0.98796 ± 0.00031; in that of CCTTTCGGGT, 0.982 ± 0.039; in that of ACATCGGTTC, 1.02 ± 0.029.
Turning to TTGGTTGTAT, the switch fluorescence ratio turned out to be 1 ± 0.011.
In the case of CGATCCGTCC it was 1.09 ± 0.032; in that of TTTCAGCTGG, 0.997 ± 0.027; in that of CAATCTTGGA, 1 ± 0.012.
In the case of TGTGTTTTCT it was 0.9862 ± 0.003; in that of GGAATTTAGG, 1 ± 0.015.
Take GTAAAAATTT: the switch fluorescence ratio was 1.06 ± 0.11.
In the case of GGCGTCGAGG it was 0.997 ± 0.018; in that of CTGGGGGGTG, 1.02 ± 0.024; in that of AGATTTTGTT, 0.975 ± 0.017.
Next, CTGAATGTAG: 1 ± 0.011.
Next, TACTGGAAGG: 0.941 ± 0.019; CGATGTCGAA: 1.01 ± 0.011.
Consider GGTTGTAGGC, for which the switch fluorescence ratio turned out to be 1.02 ± 0.017.
Next, CTTGAAACGT: 0.992 ± 0.076; AGAGGTTACG: 0.994 ± 0.046; GGGAAATAGC: 1.06 ± 0.036.
As to TATGATATCC, the switch fluorescence ratio was 0.9783 ± 0.0089.
For the sequence TTTTCGGACG, the switch fluorescence ratio was 1.03 ± 0.05.
Regarding GACATGGACG, the switch fluorescence ratio was 1.088 ± 0.0062.
In the case of TTTTTCCGTT it was 1.12 ± 0.27.
In the case of CGGCAATGTT it was 1.73 ± 0.14; in that of GGGATGTGCG, 1.04 ± 0.027.
For AGGGGTAAGA, the switch fluorescence ratio amounted to 1.01 ± 0.032.
Next, TTTATAACCA: 1.05 ± 0.024; GCGGGGTTAT: 1.03 ± 0.011.
In the case of CAATATTACT it was 1.01 ± 0.042.
Consider TAAGGGATAG, for which the switch fluorescence ratio worked out at 0.985 ± 0.043.
In the case of TTTTTGCCAC it was 1 ± 0.043.
Next, GATATGCTGT: 0.985 ± 0.017; GGGCTAATGT: 0.988 ± 0.047; GCTGTGTGGG: 1.03 ± 0.032.
Take TGGGGAACGC: the switch fluorescence ratio was determined as 1.01 ± 0.034.
In the case of AATAAAGACG it was 0.952 ± 0.025; in that of TAGGGGGTAC, 1.31 ± 0.58; in that of GCGAGAGGAT, 0.985 ± 0.028.
Take TTATAAGGG: the switch fluorescence ratio was found to be 0.9843 ± 0.0022.
Next, TAAAAAGGAA: 0.964 ± 0.064; GTTTTTACGT: 1.12 ± 0.14; CAATTTCGGT: 0.996 ± 0.039.
In the case of TACAATTTTT it was 1.01 ± 0.028.
In the case of CGGGTATTTT it was 0.9878 ± 0.0043; in that of CGTAAATTAT, 0.993 ± 0.029.
Turning to ACAGGGAGGG, the switch fluorescence ratio came to 1.02 ± 0.015.
In the case of TTGGGCCAGG it was 1.14 ± 0.12; in that of GACGCCGGTC, 1.25 ± 0.27.
In the case of TGAATTGGTG it was 1.031 ± 0.0055.
Next, TTCGTATTGT: 0.975 ± 0.018.
For the sequence TTCGTCCTGG, the switch fluorescence ratio was 1.01 ± 0.056.
Next, ATGAGGGTGC: 0.994 ± 0.054.
In the case of TTAAGATTTT it was 0.9935 ± 0.0053; in that of AAAACTTTTG, 1.02 ± 0.038.
Next, TTCGGGATCG: 0.981 ± 0.057.
In the case of CAGTCTGGGG, the switch fluorescence ratio was 0.964 ± 0.012.
In the case of TTTACATTTT it was 0.998 ± 0.044; in that of GCACAAGTTG, 1.02 ± 0.019.
Next, TGTAGGGTGC: 1.07 ± 0.044; TAAGGAAGGA: 0.9919 ± 0.0054; CATGATAGTT: 0.997 ± 0.017.
Next, CTTATCTTTT: 0.986 ± 0.0097; TAGTGGGGTA: 0.98 ± 0.032; CCGTGTACGG: 0.999 ± 0.054.
On to GGCAGGGGAT, for which the switch fluorescence ratio was determined as 1.33 ± 0.6.
In the case of TTATCGCTGC it was 1.06 ± 0.11.
In the case of TATATATAGG it was 1 ± 0.025; in that of GGGCTAATAA, 1.02 ± 0.039.
In the case of TTTCACGCAA it was 3.98 ± 1.1.
GAGTCCTCTT: the switch fluorescence ratio worked out at 1.01 ± 0.032.
Next, GATTCTTTTC: 0.991 ± 0.014; CAGTGGGGAC: 1.03 ± 0.055; TTTTAAAACA: 1.02 ± 0.029.
Next, GGTGAAGACC: 0.9598 ± 0.0086.
In the case of CTGTGTTGTG it was 0.998 ± 0.015; in that of ATGGAGGTTA, 0.9695 ± 0.0085.
AATCATCCTC: the switch fluorescence ratio came to 1.06 ± 0.043.
With TATATCGTC, the switch fluorescence ratio came to 1.19 ± 0.31.
On to GAGCTTCTCT, for which the switch fluorescence ratio is 1.0194 ± 9.9e-05.
In the case of GGAATTGGTT it was 1.01 ± 0.061; in that of TAACATGTTC, 0.995 ± 0.031; in that of AGGACCAGCA, 1.024 ± 0.0075.
Next, CGCGGGGTAC: 1.66 ± 0.26; GTACCGGGCA: 1.02 ± 0.026.
Next, CACCTGATGG: 0.997 ± 0.025; GACAATAAGT: 1.04 ± 0.012.
For GACTCAATGG, the switch fluorescence ratio amounted to 1.14 ± 0.03.
In the case of CGTGTACGGA it was 1.022 ± 0.0021.
Next, GGGTTGCAAC: 1.24 ± 0.32.
Next, TTCGGGATTG: 0.997 ± 0.024.
In the case of TATGTTCACG, the switch fluorescence ratio came out at 0.9924 ± 0.0042.
In the case of ATATATGTGG it was 0.981 ± 0.057.
